Laboratory results as given in the domain aggregation screens of Martell et al. (2025).

Assay: soluble fraction after stress (log2 fold change); higher = more stays soluble; pooled small domains, quantitative proteomics
Conditions: stress: 75 degC
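Also: 20 min heating vs room temperature control held 20 min.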

Sequence	soluble fraction (log2)
HMSSLKKISIDELSPGMYVHSIVEQKGSVKIKSQGKVLKQAVVDALRKRGVKTLLIDLSKQFNPETGEP	-0.985
HMSSLTPRETEVLSRMAQGDANTSIAERLVITEKAVQKHINAIFAKLGLAEEPTSARRVLAVLAFLR	-0.539
HMSSLTQREYEIAELVADGLSNKAIAAELSISHTTAARHVANIMNKLGFNSRSQIAAWVADRAQG	0.0373
HMSSNLSLHKEGNKIVILGLEGKSVIEVYDLMGRLLSSQTNYNPKQEITLLQPVIIRVTDTQQTKSFKV	-1.5
HMSSNLTVFTRNNAIIVNSDVVRKLNVFAVDGRLVRSVDLSVGENVINNISRGMYLIDKQKVVV	-2.77
HMSSPDMSLLYSELDVKDSGQIVTILEQRNIPYEVRNNGSQIYIPSNNVQRIRLSLAQEGLPSG	0.111
HMSSPTAKATGSSVNIRKSASTGAAVLKRVEKGTVLEAVSISDGWVKVKYSGVTGYVSADYVKVSGL	-2.19
HMSSQGQNTKTGTVTASALYVRSGAGTNYSQIGYLLKNTKVEIVGQTGSWYKIKFGSGTGYVSSKYIK	-2.69
HMSSQLETTFATLIGKRVSIRLHDPEGGFRDILGHLESPYSLRNRHGNLIEFAHDQIFLWREVI	-1.82
HMSSRNLIIFYDSPQAENALLATAERYGAILLHHYRNLHGIAVAIPADKDMAQAVTYFSRQPGVRQV	-2.56
HMSSSKVAISQFEELVDQGQVREVVIEGSTATGTTAAGRRFAAEIPPGGMELFLSKLDDAGTTYEYSPP	0.822
HMSSSYTEMQLDKLKKLLEKETLLSSEKSELKSLIHDFDKIPEVVSPLIVGEYLRLKNKYIAVINSLE	-1.25
HMSSSYTEMQLERFKELLNKETLLSSEKNELKNLISDFDKISEIVSPLVVGAYLQLKNEHIETINSLG	-0.507
HMSSTAIQAMIRRLIDGEDPRKPLSDARLAETLKASGVPVARRTVAKYRESMSIPSSQDRLRI	-0.577
HMSSTSTKTQNIVHIVKSGETLSAIASKYGVSVDNIKKWNNLSSDKLSIGQKLKINPTTQTSS	0.29
HMSSVEEILQTLGGRIRTQRLAQGISQQVLADRAGLSLGAVRQLEGSGQSGLDTLVRVLFVLGIVDEL	-2.27
HMSSVHTMEVKSTTQIKVLDENKNLSSYYSMKNPVSFNYRLFFLNQDELKKLQEDLKTNNDIQSIDIKYA	-0.484
HMSTALTPLTTREREVLALMAEGLTNSGIAARLVLTDRTVETHVSRILHKLGLGETTTNEHRRVLAVLRYL	-1.72
HMSTASPEELRQTPERRRLIEYLREHGGHGRTSEIAAALGIDDSTASRLLRRLADNGLIVRTQYGEYTLLQ	-0.184
HMSTEAVVMSSSVSVKSSPDKASTDLFVLHEGTKVRTVSELGDWREIVIADGKKGWVEARTIET	0.756
HMSTEPLALVGKTGIAATVLRPSGRIEVDDKYYDAVSLGAFIEKGEMVNIVKYENLQLYVAKL	-2.18
HMSTFAQNLRALMEKRGVSQNELARSAGLTQSAINKILTGKTKQPGIDTTEAIARVLNVSVAQLIYT	-1.4
HMSTFTPYLVKVTTSVLNIRKGAGTNYGTNGSIRDMGTYTIVAEADGQGASKWGKLKSGAGWISLDYTKK	-2.33
HMSTILERLIMLQEQSGMNQKQLQKELGLSNSAFSDWKKGKGRPSVEALVRFSEFFGVSMDWLAFG	-2.27
HMSTKRQKELLEYVDRFITEHGYGPSYREIMNAIGYKSVSTVAIHIDGLIAKGYLRKRDNSARSLEVV	-1.17
HMSTKYSSNIISLVKGLMEEDQYKDLMGPPLKKEIIKKVESITDTFPYKFDKDDKEFIVKKVLISLRK	-1.77

Sequence	soluble fraction (log2)
HMSTLKSALDEIPGIGAARKRALLNHFGSTRVISSVGVKDLEQVEGVSKKIALLIYGYFHDK	-2.57
HMSTLSIHIPDKFAGQRLDQALAELYSQFSRSRLQQWLNDGELLVDGKSVKANKKVLGGEFIQILK	-1.24
HMSTPENLGGRNTAKARISWLENGVKQELESDFPAAEVVKLSSRFGGEVPELTVIRPSLEDIYLKMIG	-0.00898
HMSTPLVATLRKRIIDGHYPPGERLAEIPVAEAFGVSRTPVRLAFRTLEQEGLLEKAGKRGYAVRA	-0.164
HMSTQVPDVKERSQEEARSILESAGFKVTPAVKTEDSADIAKDMVTKTDPAAGQSVPKGTTITIYVSS	0.126
HMSTRLIGEIGVVTKDLGAGLKENGSIQIGREEWPAETKDMEHIPMGTRVKVIHIEGTRLVVEA	-0.561
HMSTSRAEIIAFLKSNPSSEYKHELETKLDEMDWAEAVKGNSEESFLAYKQRQPNGTHNGEADEKLKVLLV	-0.0423
HMSTVISPLPGNIIKVLVPEGKSVKRGDTILTIESMKMENSIKAAYDGVVKKIYVQQAQIVMQGDPLFDL	-2.86
HMSVALSENIKTRRKALKMSQEYVAEQLDISRQAVAKWEAGKSEPTTENLVKLAALFEMSVSELVE	-0.969
HMSVDDVALRLEFGPSDAEALAFVHRHGAILSETTDRDTGVVSVHVRLSEADAGRFNQRYGV	-0.0968
HMSVDDYLKFSGSGTYWNTQDRGKTYLVNGQQRPLRDKEYLPDVMHRHVIDFITKHRDRPFYIYYSM	0.173
HMSVDVEGNQRIPTEQVLSELRDVGVSFGKRVSGLNADTIRNQMIINNDEIAWLGVNVRGSRVYVEITERI	0.125
HMSVERIEPPLPLIDTLLALRDALERPLSREENAFLSRRFAGGATRAQIDALAAQFRGAAAAESKV	0.0516
HMSVETSDLLPLIEQVLSLNPDKVKEYQNGKKGLLGFFMGQIKQTAGVAIDVGTLKPLLEDALHKDL	-0.861
HMSVEYRKTLSDGNEYQIVKEKNGYVIKKSLNEGLDYLEPMKNRKYYSSYSQAFKRLNLIAKEVNINEGYD	-0.511
HMSVFGMEIGKTTEAEAGRMYRLNKEQLNPYSGGYQYSVNPKAIDFSGLEQVTLIFDEKKVLVYVQAV	0.144
HMSVIETLLSDREREVLTHLVNGYDAKRIAEITGISTLTVRKHIANIYTKLHVNSKAQVISMAHKNKWF	-2.7
HMSVIKERLTEFLTYKGIGQIKFAEAAGLSRGFVNVLGDGISSKSLNKISQAFPELNTLWLTTGEGEML	-1.72
HMSVKTIRKTEFAKRLYSLMLEKNWNQSDLARASGMGRDSVSQYIRANNTPSPQNLKKLAEALGVEPVELY	-2.05
HMSVKYLQIYHAIREKILSNEYAINQQLPDEITLTKEFNSSRMTVKKALDLLVSEGLIFRKRGQGTFVLSR	-3.67
HMSVLDEVRKLSFHQRNAVFLFYFEGYSMKEIAQIFHVKEGTVSSWLTRARKQLRKQMEEEVLYDESLP	-0.473
HMSVLLDDLSPREREILQLVVEGHSSTKIAGMLGLASATVDTYRSRLMAKLHIDNLPDLVRFAIRHGLIS	-2.46
HMSVLLKEEGSLQLARHGAAYFIIYSAQEHPNQRRHLKISEEESNRIMEGTPIEEIFLAYSG	-1.67
HMSVLQGLIESFKAGDRNLYEVAERLNVTEPFLAEALKDYRARFPKGVQVDNFWISFRPYLTIAEV	-1.17
HMSVNEKVRLFRELNQWSQEEMAERMNMSVAGYAKIERGETNISLHKLKQIASVLQIDLLDLVS	-2.1
HMSVPEAAERAIDVAQMRRALGELSPEQQRVLELAYFGGLTRQEIARATGTPLGTVHTRARLGLQNLRARL	-0.306

Sequence	soluble fraction (log2)
HMSVPRVWTDIQGRRVKGDFEGLRGDLVVLRVGGKSYAFPLVRLIASDQAYARSLVAGNPSK	-1.5
HMSVPSLVGKTDSEAQSAIKSAGLKVGTVTYQYSDETEKGYVVSQSPYSGNKVNAGSTVNIVVSKGK	0.0467
HMSVPSVAAVREQTGLSQVKFASLLGVSVRTLQEWEQGRRAPSGAARTLLMVAAKNPQALLEV	-1.31
HMSVSVEEDADGRVWVYYQDQKMDITDLFDENGVYGFNLEKGDRTVYVEVTKNADGTYSFTQTD	0.427
HMSVTIENQINTYFQTRDKISRDELVALIKKDFANWTDNTINIYVSSLQKRGIIHSLSRGMYALGN	-4.25
HMSVTYRLLITSSPGQAEVFLDGKRVGITPFSARLAAGWYQVRVSKEGYNLWEQHVQLREDQRLTATLT	-3.17
HMSWAAQVVDKMTNDQLIKSLNEIVNTGKQLGLDITVEQNGDKNFIMTVKDSKGNVQLVTPIG	0.108
HMSWEQELIEKANEIIDLYPEKRSALGPLLYLAQERDGYISDESIVEISNLVGITEVQVKSVASFYSMYK	-3.62
HMSWNIHEAVEYYKGQDAPQNQFALVELLKEVQEHNGGVLTDIAVEEIAALLNTKVTFLNAVIKRYPSLK	-0.661
HMSYEDLIQAVSGHFGIEIRALLSEDRKKENMIPRQVAMYLLKNKLHYTYERIGNIFSGRNHTAVMYSV	-0.263
HMSYGKVQFVIDAKDAVLSIDGKETDYEKPVKLTYGSHTITVYSSDYDTWKRNLYVNSEKSTVVINLA	-3.13
HMSYKDIKEASDTGTYRDEENNIDVKWQKLFNGHNEYFDIEAYRDGERVEINNQQADRYIYLIKQEMD	0.678
HMSYPEIFQSLTEREQKIADMIAEHLSNKEIAEKMFLSEGTIKQYINQIYSKLQITGDIRNKRKQLIELFH	-1.62
HMSYTPGQWVEASMPNATFFRIVPSGNATADKMLAVATPMKVISTSGTYVKVELDSGDVGFVPEIMV	-0.199
HMTAEASELRERIRAAMATLPPAQQRVIELAYFEGLTQREIAALLNEPLGTIKTRMRLGMRKLKDVL	-2.35
HMTAIKAGDLVKITGTKYYGGQTIPGWVKNQNWYVQEVSGDRAVINKNESGTNAIMSPIRVSDLTPVS	0.036
HMTALPPNVSIDSDERRLLEAIGFDPVDMDVLARDGQFSSVDLFRLLVSLELKGLVENQHGAYQRL	-1.85
HMTALSAREHEVLQLITRGYTADEIAAMLQISRHTALTYVRRIYSKLKVNSKAEAIFEVRQR	-0.926
HMTANPHKPEPLQIDTSDITPGVTVIHKAFGNGTVVSVDNNRILIDFDGIEKKFPFPGAFLYGFLQK	-0.547
HMTAPDDFIRAEVTASGKNGMAVAELSKRVRTRFKSFKVRELGYPHLAGYLADVEGVRVYKQGRENWVAK	-0.899
HMTAQASDIEKVLQVIETLGFRGHTLPGENRTAIGVTGNRGSIDPAHFENLPGVADAIRVTKPY	-0.0976
HMTARPTLEKLKYMIHEAGITENSLKVIVATKGHYGLDADISTYSDDFITRWIIPNWTKIVQTISNNK	-1.81
HMTASSYMGMQLGRLEELLKKEVLSLSEKTELKDLISDFDKIPEVVSPKIIGRYLQLKNQHFAKINA	-0.437
HMTAVVPNFKGKLISELSNFVADKNVRYTIIDSIYDPEEKSGIVIKQDPEEKTQVKHNRIIYLYVTST	-1.51
HMTDDFAGRFNELLIHNQETAVTAATRLEVSPAVITKWRQGKSIPSGEYIKRIVETYHVSADYLLGVIDTP	-0.838
